This passage reports BMax (relative luminescent units) and Kd results from patent US20220054648A1.

Assay [1] has as its target human Trop-2 (human) (UniProt P09758). Kind of assay: cell binding assay on NCI-N87 cells, anti-mouse-HRP secondary, luminescence.
Assay [2] shares this target. Kind of assay: cell binding assay (cell line not given).

Chain of human Trop-2 (human) (P09758 27-323): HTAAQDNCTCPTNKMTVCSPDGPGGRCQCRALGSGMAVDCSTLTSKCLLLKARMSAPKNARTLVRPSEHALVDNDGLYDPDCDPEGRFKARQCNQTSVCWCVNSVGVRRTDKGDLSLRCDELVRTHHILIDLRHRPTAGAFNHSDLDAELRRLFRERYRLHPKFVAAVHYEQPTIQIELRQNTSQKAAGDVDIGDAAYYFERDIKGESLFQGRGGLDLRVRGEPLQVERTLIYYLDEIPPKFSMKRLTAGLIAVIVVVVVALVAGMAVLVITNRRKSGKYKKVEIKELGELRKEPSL

Take “162-46.2 murine monoclonal antibody against human Trop-2”: the BMax (relative luminescent units) in the assay with human Trop-2 (human) [1] came out at 8470.
The same measure, in the same setting: then “MAB650 murine monoclonal antibody against human Trop-2 (R&D Systems)”, with 6020.
As to “hRS7-CL2-SN-38 (anti-Trop-2 ADC, hRS7 IgG conjugated to CL2-SN-38) (antibody)”, the dissociation constant Kd (usually the concentration at which binding is half-saturated) with human Trop-2 (human) [2] came to 1.2 nM.
Still for that read-out and setting: then “hRS7-CL2A-SN-38 (anti-Trop-2 ADC, hRS7 IgG conjugated to CL2A-SN-38) (antibody)”, with 1.2 nM.
